{"source": "patent US20250049953A1", "about": "“TREATMENT AND METHOD FOR INHIBITING LATE NA CURRENT” (THE TRUSTEES OF COLUMBIA UNIVERSITY IN THE CITY OF NEW YORK, priority 2022, published 2025)", "key": {"[1]": {"target": "T1, wild-type NaV1.5 (Homo sapiens, UniProt Q14524)", "T1 construct": "expressed in transfected cells; host or cells: HEK293 (ATCC CRL1573)", "assay": "Phosphorylation-dependent late Na current, wild-type NaV1.5 co-expressed with PKAcat or CaMKIIT286D in HEK293 cells", "type": "cell-based", "excerpt": "As such, we sought to determine whether “protective” FHF variants may inhibit phosphorylation-dependent INa,L. To maximally upregulate INa,L, we co-expressed wild-type NaV1.5 with either (1) the catalytic Cα subunit of protein kinase A (PKA) or (2) a constitutively-active Ca^2+/CaM dependent kinase II (CaMKIIT286D) mutant in HEK293 cells. This maneuver likely triggers runaway phosphorylation of NaV1.5 and thereby furnishes a baseline to discern any potential FHF-dependent change. As expected, we observed an ˜5 fold increase in INa,L in the presence of the PKA Cα subunit (FIGS. 3D and 3E), and a 3-fold increase with CaMKIIT286D (FIGS. 3E and 11B). […] Encouraged by these findings, we dissected the functional role of this modulation in native cardiomyocytes (FIGS. 3F and 3G).\nThe human NaV1.5 channel corresponds to clone M77235.1 (GenBank) and is subcloned into pGW 1 vector with HindIII and SaII. To facilitate construction of channelopathic mutations in the channel carboxy-terminus, we introduced silent mutations into NaV1.5 to introduce an NruI cutting site near the channel carboxy-terminus (5329-gtggccacg-5337 into 5329-gtCgcGacg-5337). Subsequently, we used overlap-extension PCR and ligated the PCR product into NaV1.5/pGW1 using NruI and XbaI restriction sites (mutations: E1784K, S1904L, IQ/AA, and Q1909R). […]"}, "[2]": {"target": "T2, NaV1.5 S[1885]* (Homo sapiens, UniProt Q14524)", "T2 construct": "expressed in transfected cells; host or cells: HEK293 (ATCC CRL1573)", "T2 sequence (Q14524 1-1884 limits assumed)": "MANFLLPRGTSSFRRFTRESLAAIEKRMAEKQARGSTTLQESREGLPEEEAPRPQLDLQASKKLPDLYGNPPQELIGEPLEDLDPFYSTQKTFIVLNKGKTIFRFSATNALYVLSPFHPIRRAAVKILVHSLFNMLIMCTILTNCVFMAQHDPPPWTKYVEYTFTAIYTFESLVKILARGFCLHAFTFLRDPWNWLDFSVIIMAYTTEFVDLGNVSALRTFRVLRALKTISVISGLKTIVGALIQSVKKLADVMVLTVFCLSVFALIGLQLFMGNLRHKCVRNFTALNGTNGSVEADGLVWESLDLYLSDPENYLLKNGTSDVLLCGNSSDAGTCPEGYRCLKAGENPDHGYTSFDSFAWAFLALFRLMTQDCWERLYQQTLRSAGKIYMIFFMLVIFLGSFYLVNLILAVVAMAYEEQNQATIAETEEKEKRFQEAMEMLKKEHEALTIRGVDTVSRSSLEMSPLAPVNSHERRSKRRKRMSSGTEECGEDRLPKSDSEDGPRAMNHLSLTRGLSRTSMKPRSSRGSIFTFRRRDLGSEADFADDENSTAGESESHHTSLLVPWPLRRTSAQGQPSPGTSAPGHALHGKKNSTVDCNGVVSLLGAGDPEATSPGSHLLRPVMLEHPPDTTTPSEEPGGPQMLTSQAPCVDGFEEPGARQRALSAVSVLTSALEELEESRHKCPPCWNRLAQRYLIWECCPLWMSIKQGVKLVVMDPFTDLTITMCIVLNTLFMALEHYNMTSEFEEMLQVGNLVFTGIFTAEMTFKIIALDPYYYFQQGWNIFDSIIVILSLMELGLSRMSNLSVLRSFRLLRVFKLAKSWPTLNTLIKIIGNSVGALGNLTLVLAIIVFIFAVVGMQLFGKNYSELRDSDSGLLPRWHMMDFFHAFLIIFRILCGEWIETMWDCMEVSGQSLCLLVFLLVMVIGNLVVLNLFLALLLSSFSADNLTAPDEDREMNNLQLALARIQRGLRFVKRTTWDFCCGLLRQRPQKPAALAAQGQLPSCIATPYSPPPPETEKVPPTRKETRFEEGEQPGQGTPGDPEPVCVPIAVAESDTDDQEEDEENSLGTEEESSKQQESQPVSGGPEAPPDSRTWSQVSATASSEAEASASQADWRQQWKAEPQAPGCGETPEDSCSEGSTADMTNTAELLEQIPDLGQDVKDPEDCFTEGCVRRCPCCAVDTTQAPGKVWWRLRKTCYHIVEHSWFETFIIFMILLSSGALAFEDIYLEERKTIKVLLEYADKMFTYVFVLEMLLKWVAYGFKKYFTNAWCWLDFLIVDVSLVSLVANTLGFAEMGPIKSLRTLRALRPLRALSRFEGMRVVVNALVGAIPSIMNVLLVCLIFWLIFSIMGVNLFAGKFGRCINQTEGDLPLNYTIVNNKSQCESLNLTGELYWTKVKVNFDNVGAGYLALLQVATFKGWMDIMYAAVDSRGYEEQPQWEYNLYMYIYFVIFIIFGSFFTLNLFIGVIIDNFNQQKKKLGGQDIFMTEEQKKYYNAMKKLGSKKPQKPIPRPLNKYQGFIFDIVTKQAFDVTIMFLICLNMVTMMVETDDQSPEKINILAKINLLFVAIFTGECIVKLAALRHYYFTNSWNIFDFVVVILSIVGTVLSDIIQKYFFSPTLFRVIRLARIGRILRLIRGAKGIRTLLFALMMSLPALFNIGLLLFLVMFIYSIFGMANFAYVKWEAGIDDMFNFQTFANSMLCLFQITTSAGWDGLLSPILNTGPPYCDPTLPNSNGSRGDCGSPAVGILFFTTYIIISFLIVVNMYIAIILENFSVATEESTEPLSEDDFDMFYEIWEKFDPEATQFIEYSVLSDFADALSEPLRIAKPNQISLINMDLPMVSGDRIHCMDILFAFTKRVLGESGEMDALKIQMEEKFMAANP", "assay": "Multichannel recordings of late Na current, NaV1.5 S[1885]* truncation", "type": "cell-based", "details": "co-expression", "excerpt": "The human NaV1.5 channel corresponds to clone M77235.1 (GenBank) and is subcloned into pGW 1 vector with HindIII and SaII. To facilitate construction of channelopathic mutations in the channel carboxy-terminus, we introduced silent mutations into NaV1.5 to introduce an NruI cutting site near the channel carboxy-terminus (5329-gtggccacg-5337 into 5329-gtCgcGacg-5337). Subsequently, we used overlap-extension PCR and ligated the PCR product into NaV1.5/pGW1 using NruI and XbaI restriction sites (mutations: E1784K, S1904L, IQ/AA, and Q1909R). For generating the ΔKPQ and IFM/IQM mutations, we used overlap-extension PCR and ligated in NaV1.5/pGW1 following restriction digest using KpnI and XbaI site. For generation of NaV1.5 truncations, we PCR amplified relevant segments using a forward primer upstream of the KpnI site and a reverse primer that truncated at the appropriate location (Δ1810 and Δ1885) and included an XbaI site and ligated into NaV1.5/pW1 vector. For LILA/WICW mutations, we used overlap extension and used restriction site AgeI and NheI for subsequent ligation. All segments subjected to PCR amplification were verified by sequencing. For generating human FHF2 splice-variants, we synthesized gene fragments and ligated into pcDNA3 using BamHI/EcoRI restriction sites. Human FHF1A and FHF1B were subcloned into ECFP-N3 vector, FHF2 splice variants and FHF3 were subcloned into pcDNA3. […]"}}}
{"substance": "FixR: minimal 39-amino-acid FHF1A amino-terminal effector domain, MAAAIASSLIRQKRQARESNSDRVSASKRRSSPSKDGRS (SEQ ID NO: 4), expressed as peptide", "values": [{"measurement": "change in phosphorylation-dependent INa,L", "setting": "[1]; INa,L upregulated by CaMKIIT286D", "result": "reduces INa,L"}, {"measurement": "change in phosphorylation-dependent INa,L", "setting": "[1]; INa,L upregulated by PKA catalytic subunit (PKAcat)", "result": "reduces INa,L"}, {"measurement": "change in INa,L", "setting": "[2]", "result": "strongly inhibits"}]}
